The target in experiment [1] is T1, CGRP (CLR/RAMP1) receptor (Homo sapiens, UniProt O60894+Q16602).
T1 construct: expressed in transfected cells; host or cells: Cos 7 (African green monkey kidney), transient transfection with polyethylenimine
As to the kind of experiment: Antagonism of CGRP-induced cAMP accumulation in Cos 7 cells transfected with CLR/RAMP1. The experiment is classed as cell-based. As to conditions: for A2 (antilog of the negative pA2), CGRP (CLR/RAMP1): transfected Cos-7 cells, cAMP. The method, then: (§1) 1. Antagonism of CGRP-Induced cAMP Accumulation in Transfected CGRP Receptor Expressing Cells
(§2) Simian vacuolating virus 40 (SV40) transformed African green monkey kidney (Cos 7) cells were transiently transfected with calcitonin receptor-like receptor (CLR) or calcitonin receptor (CTR) together with receptor activity-modifying protein 1 (RAMP1) to form CGRP or AMY1(a) receptors.
(§3) On the day of experimentation, media was replaced with 50 μl DMEM containing 1 mM isobutylmethylxanthine and 0.1% bovine serum albumin for 30 min. All peptides were diluted in assay medium and after the 30 min incubation, 25 μl antagonists were added, followed immediately by 25 μl human alpha CGRP (hαCGRP), giving a total assay volume of 100 μl. Once human alpha CGRP was added, the cells were incubated at 37° C. for 15 minutes. The media was then aspirated from the wells and reactions terminated with ice-cold absolute ethanol. Ethanol was evaporated to dryness and cAMP was quantified using a commercially-available assay (LANCE Perkin Elmer).
(§4) 3. Calculation of Antagonist Potency Values
(§5) Data were analysed using Graphpad Prism 7. Antagonist pKB or pA2 values were obtained using Global Schild analysis. […] Where a single concentration of antagonist was used, pA2 values are used to describe antagonist potency.

Experiment [2] concerns the target T2, AMY1 (CTR/RAMP1) receptor (Homo sapiens, UniProt O60894+P30988).
T2 construct: expressed in transfected cells; host or cells: Cos 7 (African green monkey kidney), transient transfection with polyethylenimine
As to the kind of experiment: Antagonism of CGRP-induced cAMP accumulation in Cos 7 cells transfected with CTR/RAMP1. It is filed as cell-based. As to conditions: transfected Cos-7 cells. The method, then: as §1, §2, §3, §4, §5

Experiment [3] deals with human CGRP receptor (CLR/RAMP1), transiently transfected in Cos 7 cells (human, UniProt Q16602 23-461; O60894 27-148). As to the kind of experiment: cell-based or functional assay.
The target in experiment [4] is human AMY1(a) receptor (CTR/RAMP1), transiently transfected in Cos 7 cells (human), P30988. As to the kind of experiment: cell-based or functional assay.

Marks after values point to notes of the source that are not given here. Where no end group is shown, it is not given here. The star is where a group is joined. Ethyl(2-palmitoyloxy) = CCCCCCCCCCCCCCCC(=O)OCC*

Chain of human CGRP receptor (CLR/RAMP1), transiently transfected in Cos 7 cells (Q16602 23-461, chain 1 of 2): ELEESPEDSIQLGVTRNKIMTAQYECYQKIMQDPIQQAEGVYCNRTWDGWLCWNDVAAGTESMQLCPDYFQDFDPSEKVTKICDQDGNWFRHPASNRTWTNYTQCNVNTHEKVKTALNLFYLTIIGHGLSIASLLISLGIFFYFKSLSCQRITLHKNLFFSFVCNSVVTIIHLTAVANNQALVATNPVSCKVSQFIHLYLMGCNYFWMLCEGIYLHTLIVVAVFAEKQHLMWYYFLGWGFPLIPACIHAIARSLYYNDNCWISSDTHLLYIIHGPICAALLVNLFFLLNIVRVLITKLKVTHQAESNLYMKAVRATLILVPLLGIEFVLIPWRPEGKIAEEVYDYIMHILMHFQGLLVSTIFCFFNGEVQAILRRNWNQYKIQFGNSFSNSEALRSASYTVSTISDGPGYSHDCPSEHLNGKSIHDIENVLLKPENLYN
Chain of human CGRP receptor (CLR/RAMP1), transiently transfected in Cos 7 cells (O60894 27-148, chain 2 of 2): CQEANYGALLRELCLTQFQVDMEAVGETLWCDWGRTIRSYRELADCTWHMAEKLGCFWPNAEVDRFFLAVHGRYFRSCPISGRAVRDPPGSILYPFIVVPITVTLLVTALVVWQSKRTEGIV
T1 sequence (Q16602 23-461): as the sequence (Q16602 23-461, chain 1 of 2) above
T1 sequence (O60894 27-148): as the sequence (O60894 27-148, chain 2 of 2) above
T2 sequence (P30988 25-474): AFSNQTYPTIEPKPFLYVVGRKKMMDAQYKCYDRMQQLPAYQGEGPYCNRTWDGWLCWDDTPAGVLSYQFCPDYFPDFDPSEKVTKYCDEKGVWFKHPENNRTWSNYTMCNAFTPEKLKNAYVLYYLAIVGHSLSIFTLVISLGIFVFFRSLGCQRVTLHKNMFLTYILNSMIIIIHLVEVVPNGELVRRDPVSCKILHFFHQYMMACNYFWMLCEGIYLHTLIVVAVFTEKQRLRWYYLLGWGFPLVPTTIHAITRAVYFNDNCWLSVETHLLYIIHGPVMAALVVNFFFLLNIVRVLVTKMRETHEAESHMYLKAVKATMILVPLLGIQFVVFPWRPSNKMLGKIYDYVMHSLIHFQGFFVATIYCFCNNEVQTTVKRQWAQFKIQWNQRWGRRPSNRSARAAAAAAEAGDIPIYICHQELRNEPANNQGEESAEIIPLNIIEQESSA
T2 sequence (O60894 27-148): as the sequence (O60894 27-148, chain 2 of 2) above
Chain of human AMY1(a) receptor (CTR/RAMP1), transiently transfected in Cos 7 cells (human), P30988 (P30988 25-474, chain 1 of 2): as the sequence (P30988 25-474) above
Chain of human AMY1(a) receptor (CTR/RAMP1), transiently transfected in Cos 7 cells (human), P30988 (O60894 27-148, chain 2 of 2, further chain): as the sequence (O60894 27-148, chain 2 of 2) above

For `CC(C)C[C@H](NC(=O)CNC(=O)[C@H](C)NC(=O)[C@H](CC(C)C)NC(=O)[C@H](CCCNC(=N)N)NC(=O)[C@H](Cc1c[nH]cn1)NC(=O)[C@@H](NC(=O)[C@@H](NC(=O)[C@@H](N)CS)C(C)C)[C@@H](C)O)C(=O)N[C@@H](CC(C)C)C(=O)N[C@@H](CO)C(=O)N[C@@H](CCCNC(=N)N)C(=O)N[C@@H](CO)C(=O)NCC(=O)NCC(=O)N[C@H](C(=O)N[C@H](C(=O)N[C@@H](CCCCN)C(=O)N[C@@H](CC(N)=O)C(=O)N[C@@H](CC(N)=O)C(=O)N[C@@H](Cc1ccccc1)C(=O)N[C@H](C(=O)N1CCC[C@H]1C(=O)N[C@H](C(=O)N[C@@H](CC(N)=O)C(=O)N[C@H](C(=O)NCC(=O)N[C@@H](CO)C(=O)N[C@@H](CCCCN)C(=O)N[C@@H](C)C(=O)N[C@@H](Cc1ccccc1)C(N)=O)C(C)C)[C@@H](C)O)C(C)C)C(C)C)C(C)C` [B, CGRP7-37], the “Selectivity (fold-difference CGRP vs. AMY1)” value in experiment [1] (CGRP (CLR/RAMP1) vs. AMY1 (CTR/RAMP1), Cos-7 cells) is recorded as 15 fold. The “A2 (antilog of the negative pA2), CGRP (CLR/RAMP1)” value in experiment [1] is “(A2: 4.9 nM)”. The “A2 (antilog of the negative pA2), AMY1 (CTR/RAMP1)” value in experiment [2] is reported as “(3)^### (A2: 76 nM”. Also, the Kb in experiment [2] (human alpha CGRP, mean ± s.e.m (n), read-out: Antagonist potency (pKB), AMY1 (CTR/RAMP1) (converted)) is 75.9 nM.

In the case of β-CGRP8-37 [C1, reference compound], the “A2 (antilog of the negative pA2), CGRP (CLR/RAMP1)” value in experiment [1] is listed as “(A2: 1.0 nM)”.

For the molecule K35C(S-Pam) CGRP8-37 [A6], the “A2 (antilog of the negative pA2), AMY1 (CTR/RAMP1)” value in experiment [2] is “(A2: 1071 nM)”. In experiment [2] (pA2 for A6), the “Antagonist potency (pA2), AMY1 (CTR/RAMP1)” value stood at 5.97 ± 0.14.

B1: CGRP7-37 B (peptide)
peptide: CVTHRLAGLLSRSGGVVKNNFVPTNVGSKAF-NH2
With B1, in experiment [3], the “A2 (antilog of the negative pA2; cAMP assay, Cos 7)” value stood at 4.9 nM; the “Selectivity (fold-difference CGRP vs. AMY1)” value stood at 15 fold; the “antagonist potency pKB (cAMP assay, Cos 7)” value worked out at 8.31. In experiment [4], this molecule showed an A2 (antilog of the negative pA2; cAMP assay, Cos 7) of 76 nM and an antagonist potency pKB (cAMP assay, Cos 7) of 7.12.

B2: 7C(S-Pam) CGRP7-37 B1 (peptide)
peptide: CVTHRLAGLLSRSGGVVKNNFVPTNVGSKAF
modifications: here or on the partner: Cys 7 (CGRP numbering; residue 1 of the entry) S-conjugated to 2-(palmitoyloxy)ethyl (S-Pam); C-terminal amide
On to B2, for which, in experiment [4], the A2 (antilog of the negative pA2; cAMP assay, Cos 7) was 2.2 nM; the A2, with wash (cAMP assay, Cos 7) stood at 1.2 nM; the A2, without wash (cAMP assay, Cos 7) amounted to 0.5 nM; the Fold change reduction in pA2 with wash is 2.3 fold. In experiment [4], this molecule came in with an antagonist potency pA2, with wash (cAMP assay, Cos 7) of 8.93; an antagonist potency pA2, without wash (cAMP assay, Cos 7) of 9.3; an antagonist potency pKB (cAMP assay, Cos 7) of 8.66.

B3: R11C(S-Pam), K24C(S-Pam) α-CGRP8-37 A11 (peptide)
peptide: VTHC(Ethyl(2-palmitoyloxy))LAGLLSRSGGVVC(Ethyl(2-palmitoyloxy))NNFVPTNVGSKAF-NH2
Take B3: in experiment [3], the “A2 (antilog of the negative pA2; cAMP assay, Cos 7)” value was > 100 nM and the “antagonist potency pA2 (cAMP assay, Cos 7)” value is < 7.

B4: K35C(S-Pam) CGRP8-37 A6 (peptide)
peptide: VTHRLAGLLSRSGGVVKNNFVPTNVGSC(Ethyl(2-palmitoyloxy))AF-NH2
modifications: N-terminus assumed
SMILES: CCCCCCCCCCCCCCCC(=O)OCCSC[C@H](NC(=O)[C@H](CO)NC(=O)CNC(=O)[C@@H](NC(=O)[C@H](CC(N)=O)NC(=O)[C@@H](NC(=O)[C@@H]1CCCN1C(=O)[C@@H](NC(=O)[C@H](Cc1ccccc1)NC(=O)[C@H](CC(N)=O)NC(=O)[C@H](CC(N)=O)NC(=O)[C@H](CCCCN)NC(=O)[C@@H](NC(=O)[C@@H](NC(=O)CNC(=O)CNC(=O)[C@H](CO)NC(=O)[C@H](CCCNC(=N)N)NC(=O)[C@H](CO)NC(=O)[C@H](CC(C)C)NC(=O)[C@H](CC(C)C)NC(=O)CNC(=O)[C@H](C)NC(=O)[C@H](CC(C)C)NC(=O)[C@H](CCCNC(=N)N)NC(=O)[C@H](Cc1c[nH]cn1)NC(=O)[C@@H](NC(=O)[C@@H](N)C(C)C)[C@@H](C)O)C(C)C)C(C)C)C(C)C)[C@@H](C)O)C(C)C)C(=O)N[C@@H](C)C(=O)N[C@@H](Cc1ccccc1)C(N)=O
Regarding B4, in experiment [4], the A2 (antilog of the negative pA2; cAMP assay, Cos 7) is 1.07 µM and the antagonist potency pA2 (cAMP assay, Cos 7) came out at 5.97.

These data come from patent US20200353088A1, “PEPTIDE CONJUGATE CGRP RECEPTOR ANTAGONISTS AND METHODS OF PREPARATION AND USES THEREOF” (Auckland UniServices Limited, priority 2017, published 2020).
